According to article PMC6149798:

Assays:
[1] = target: 9His-rsLAAO1 (L-amino acid oxidase from Rhizoctonia solani with nine histidine residues as affinity tag) (Rhizoctonia solani); assay: SEC; native 9His-rsLAAO1 on calibrated Superdex 200 Increase 10/300 GL, 50 mM NaH2PO4 pH 8.2, 300 mM NaCl, 0.3 mL/min; without SDS
[2] = target: 9His-rsLAAO1 (L-amino acid oxidase from Rhizoctonia solani with nine histidine residues as affinity tag) (Rhizoctonia solani); assay: SEC; 9His-rsLAAO1 activated with 1.5 mM SDS, added to the protein solution before chromatography; Superdex 200 Increase 10/300 GL, 50 mM NaH2PO4 pH 8.2, 300 mM NaCl

stoichiometry N [1]: 2
stoichiometry N [2]: 2
Substance: 9His-rsLAAO1 (L-amino acid oxidase from Rhizoctonia solani with nine histidine residues as affinity tag) (enzyme)
